{"source": "paper doi:10.1101/2023.01.23.525191", "about": "“Mechanism of an alternative splicing switch mediated by cell-specific and general splicing regulators” (bioRxiv, 2023)", "proteins": {"B1": {"name": "recombinant untagged full length rat RBPMS-A (natural protein)", "chain": "not shown", "notes": "RBPMS isoform A (RBPMS-A), rat, cDNA NCBI XM_006253240.2, full length open reading frame; it may be the rat protein; Exists as a mixture of dimers and higher-order oligomers; also called FL RBPMS; FL; source: E. coli BL21 (DE3), purified (Histrap, TEV cleavage, mono Q, Superdex 200); not shown: His6, N-terminal, cleaved"}}, "key": {"[1]": {"biological_target": "the molecule itself", "test": "SEC; size exclusion chromatography of recombinant untagged protein; dimer and higher-order assemblies"}, "[2]": {"biological_target": "the molecule itself", "test": "AUC; sedimentation velocity, 500 mM KCl, 20 mM HEPES, 1 mM TCEP, pH 7.9, 20 °C; FL 0.46 and ΔC20 0.57 mg/ml as printed; dimers and higher-order oligomers"}}}
{"protein": "B1", "values": [{"measurement": "stoichiometry N", "setting": "[1]", "value": 2}, {"measurement": "stoichiometry N", "setting": "[2]", "value": "~21"}]}
